# T1: Telomere Repeat-binding Factor 2 (TRF2), full-length human (human, UniProt Q15554 1-542, Alexa Fluor 594 or Alexa Fluor 488 label where used labeled (site not stated); unlabeled where used as competitor and in MST)
# T1 construct: TRF2, human, full-length; Removal of the His tag is not mentioned
# T1 sequence (looked up): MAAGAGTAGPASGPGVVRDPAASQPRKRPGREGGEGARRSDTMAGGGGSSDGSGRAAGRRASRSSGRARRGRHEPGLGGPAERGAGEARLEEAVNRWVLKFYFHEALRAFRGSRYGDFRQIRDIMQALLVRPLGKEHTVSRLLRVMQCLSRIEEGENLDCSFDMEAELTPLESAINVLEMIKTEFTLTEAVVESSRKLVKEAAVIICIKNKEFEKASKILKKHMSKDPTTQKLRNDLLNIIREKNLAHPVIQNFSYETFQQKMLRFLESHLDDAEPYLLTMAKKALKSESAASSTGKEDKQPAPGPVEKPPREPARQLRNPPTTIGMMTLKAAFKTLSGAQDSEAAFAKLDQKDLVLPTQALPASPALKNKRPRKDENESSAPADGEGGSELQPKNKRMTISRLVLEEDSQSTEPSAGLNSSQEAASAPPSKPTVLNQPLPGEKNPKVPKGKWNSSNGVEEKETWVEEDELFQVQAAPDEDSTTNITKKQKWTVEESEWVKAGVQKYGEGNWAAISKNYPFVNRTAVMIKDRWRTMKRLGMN
# T2: Telomere Repeat-binding Factor 1 (TRF1), full-length human (human, UniProt P54274 1-439, Alexa Fluor 594 or Alexa Fluor 488 label where used labeled (site not stated); unlabeled where used as competitor and in MST)
# T2 construct: TRF1, human, full-length; Removal of the His tag is not mentioned
# T2 sequence (looked up): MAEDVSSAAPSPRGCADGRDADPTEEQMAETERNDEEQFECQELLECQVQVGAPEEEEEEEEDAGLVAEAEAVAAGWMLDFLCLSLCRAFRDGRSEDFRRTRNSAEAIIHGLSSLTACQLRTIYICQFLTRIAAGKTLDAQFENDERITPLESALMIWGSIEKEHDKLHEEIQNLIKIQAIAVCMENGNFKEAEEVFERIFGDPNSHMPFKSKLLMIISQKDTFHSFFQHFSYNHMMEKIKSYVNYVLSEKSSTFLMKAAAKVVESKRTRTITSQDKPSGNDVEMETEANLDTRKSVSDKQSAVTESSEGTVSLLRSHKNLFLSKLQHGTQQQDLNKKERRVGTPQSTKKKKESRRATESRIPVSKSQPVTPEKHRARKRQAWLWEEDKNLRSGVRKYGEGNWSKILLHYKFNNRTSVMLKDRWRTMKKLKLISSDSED
# Legend:
# TRF1;TIN2 = TRF1;TIN2 (human;human, UniProt P54274;Q9BSI4 1-439;1-451, |); experiment: fluorescence anisotropy; TRF1 5 uM:TIN2 2.5 uM (2:1) stock titrated into 7.5 nM DNA; KD only in figure; 50 mM sodium phosphate pH 7.0, 50 mM NaCl, 25 C; 7.5 nM Alexa Fluor 488-labeled DNA; 2 min incubation per titration step; conditions: protein: recombinant;recombinant; chain copies: 2;1; (described only as annealed with its complementary strand)
# [1] = target: T1, Telomere Repeat-binding Factor 2 …; experiment: MST; Alexa Fluor 488 labeled TIN2 incubated with different concentrations of TRF1 or TRF2; 50 mM sodium phosphate pH 7.0, 50 mM NaCl; 12 °C; apparent KD; conditions: both partners purified
# [2] = target: T2, Telomere Repeat-binding Factor 1 …; experiment: as above; conditions: both partners purified
Binder,binding result (TRF1;TIN2),Kd [1],Kd [2]
R5 telomeric duplex (five repeats) (dsDNA) DNA 1: GTTAGGGTTAGGGTTAGGGTTAGGGTTAGGGTTAG DNA 2: CTAACCCTAACCCTAACCCTAACCCTAACCCTAAC,binds,–,–
"TRF1-Interacting Nuclear factor 2 (TIN2), full-length human (natural protein, Alexa Fluor 488 label where used labeled (site not stated); unlabeled in the TRF1/TRF2 cross-correlation experiment and in SEC) ATPLVAGPAALRFAAAASWQVVRGRCVEHFPRVLEFLRSLRAVAPGLVRYRHHERLCMGLKAKVVVELILQGRPWAQVLKALNHHFPESGPIVRDPKATKQDLRKILEAQETFYQQVKQLSEAPVDLASKLQELEQEYGEPFLAAMEKLLFEYLCQLEKALPTPQAQQLQDVLSWMQPGVSITSSLAWRQYGVDMGWLLPECSVTDSVNLAEPMEQNPPQQQRLALHNPLPKAKPGTHLPQGPSSRTHPEPLAGRHFNLAPLGRRRVQSQWASTRGGHKERPTVMLFPFRNLGSPTQVISKPESKEEHAIYTADLAMGTRAASTGKSKSPCQTLGGRALKENPVDLPATEQKENCLDCYMDPLRLSLLPPRARKPVCPPSLCSSVITIGDLVLDSDEEENGQGEGKESLENYQKTKFDTLIPTLCEYLPPSGHGAIPVSSCDCRDSSRPL",–,360 nM,240 nM
